The results in this text go back to US9186390B2, “Methods and uses of TIE2 binding and/or activating agents” (Sunnybrook Health Sciences Center, priority 2010, dated 2015).

Data set [1] has as its target T1, Tie2 receptor (Mus musculus, UniProt Q02858).
T1 construct: from tissue; host or cells: lung of CD1 mice (in vivo dosing, lung homogenate)
Put plainly: Tie2 activation in vivo (Tie2 immunoprecipitation from lung lysates, pY Tie2 western blot). More on the design: species or system CD1 mice. Particulars: for time points at which activation of Tie2 (pY Tie2) was evident: pooled lung lysates of three mice. On the procedure:
The following commercially available antibodies were used: monoclonal anti-Tie2 (Phaminogen), polyclonal anti-Tie2 (Santa Cruz Biotechnology) and monoclonal anti-pY (clone 4G10, Upstate Biotechnology). Lung lysates were prepared and immunoprecipitated in full RIPA buffer (50 mM Tris-HCl, pH 7.4, 150 mM NaCl, 1 mM PMSF, 1 mM EDTA, 5 μg/ml Aprotinin 5 μg/ml Leupeptin, 1% Triton x-100, 1% Sodium deoxycholate, 0.1% SDS). Proteins were resolved in 10% PAGE according to Laemlli and transferred to PVDF membrane for subsequent antibody probing.
Purified Vasculotide was examined for its ability to activate the Tie2 receptor tyrosine kinase in CD1 mice (FIG. 1A). Three mice per group were injected intraperitoneally (IP) with either Vasculotide (500 ng-12.5 μg) or vehicle (PBS) control. After one hour, mice were sacrificed and lung homogenates were prepared for immunoblot analysis. […] This effect is particularly evident when total protein loading is accounted for (see pan Tie2, lower panel). While this may seem somewhat paradoxical, this phenomenon has also been reported by others while investigating the effect of Ang1 on Tie2 activation (Brkovic et al. (2007) J. Leukoc. Biol. 81(4), 1093-1101), Sturn et al. (2005) Microcirculation 12(5), 393-403, Murdoch et al. (2007) J Immunol 178(11), 7405-7411, van der Geer et al. (1994) Ann. Rev. Cell Biol. 10, 251-337, Gruber et al. (1995) Blood 86(7), 2488-2493, Maliba et al. (2008) J. Leukoc. Biol. 83(2), 352-360, and Van Slyke et al. (2009) Tissue Eng. Part A 15(6), 1269-1280).
To assess the duration of Tie2 activation following Vasculotide administration, three mice per time point were injected with 2 μg intraperitoneally (I.P.) or by gavage (P.O.). Lung lysates were prepared from each of the mice at the indicated times following initial dosing (FIG. 1B). Equal quantities of protein from each group were pooled and immunoprecipitated for Tie2 to establish an average Tie2 activation for each group. Activation of Tie2 (see pY Tie2, upper panels) was evident at time points ranging from 24-72 hours in the I.P. injected mice. By 96 hours post injection, the Tie2 receptor phosphorylation had returned to basal (PBS stimulated) levels.

Data set [2] can be described thus: Vasculotide-specific ELISA of circulating Vasculotide in mouse plasma. Format: in vivo, CD1 mice. Particulars: for circulating level in plasma after oral delivery: 2 μg P.O. (gavage). An excerpt: Several monoclonal antibodies have been raised against the modified T7 peptide. These antibodies have been extensively validated and used to develop an ELISA which is capable of measuring picogram quantities of Vasculotide in mouse plasma or serum. There is an excellent linear relationship between ELISA signal and Vasculotide concentration with little interference from mouse plasma/serum proteins (FIG. 1C).
The developed ELISA was used to track circulating levels of Vasculotide in the plasma of mice over time. […] The incongruence of these findings is likely due to a paucity of sensitivity in the ELISA-based detection of Vasculotide.
A general note: ELISA stands for enzyme-linked immunosorbent assay.

T1 sequence (Q02858 23-1122): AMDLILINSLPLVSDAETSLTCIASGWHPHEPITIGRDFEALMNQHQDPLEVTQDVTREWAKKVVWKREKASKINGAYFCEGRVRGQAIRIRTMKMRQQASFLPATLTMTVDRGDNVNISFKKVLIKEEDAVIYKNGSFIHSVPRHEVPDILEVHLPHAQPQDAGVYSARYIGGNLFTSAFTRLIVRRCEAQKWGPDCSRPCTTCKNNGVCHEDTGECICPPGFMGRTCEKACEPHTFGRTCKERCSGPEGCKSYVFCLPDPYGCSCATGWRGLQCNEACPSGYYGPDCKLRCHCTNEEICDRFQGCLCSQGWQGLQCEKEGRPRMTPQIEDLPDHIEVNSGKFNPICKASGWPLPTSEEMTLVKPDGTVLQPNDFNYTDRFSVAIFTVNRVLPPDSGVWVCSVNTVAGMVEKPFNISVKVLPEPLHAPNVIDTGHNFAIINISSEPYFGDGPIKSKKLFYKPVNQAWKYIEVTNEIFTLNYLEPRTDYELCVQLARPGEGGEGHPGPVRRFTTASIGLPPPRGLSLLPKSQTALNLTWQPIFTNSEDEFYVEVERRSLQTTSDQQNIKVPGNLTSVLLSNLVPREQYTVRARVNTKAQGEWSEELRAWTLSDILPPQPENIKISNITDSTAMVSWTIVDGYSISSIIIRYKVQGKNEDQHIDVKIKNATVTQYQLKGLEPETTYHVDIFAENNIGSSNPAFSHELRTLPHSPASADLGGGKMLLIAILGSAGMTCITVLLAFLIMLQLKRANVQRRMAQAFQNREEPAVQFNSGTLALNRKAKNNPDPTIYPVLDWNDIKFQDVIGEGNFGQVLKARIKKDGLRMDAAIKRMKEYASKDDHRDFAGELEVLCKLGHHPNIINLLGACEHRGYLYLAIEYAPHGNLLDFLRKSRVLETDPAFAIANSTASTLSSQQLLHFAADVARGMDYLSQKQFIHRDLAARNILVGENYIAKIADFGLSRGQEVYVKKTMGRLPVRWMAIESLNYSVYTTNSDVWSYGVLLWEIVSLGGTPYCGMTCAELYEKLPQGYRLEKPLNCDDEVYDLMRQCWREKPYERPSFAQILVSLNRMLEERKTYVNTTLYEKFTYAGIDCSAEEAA

Turning to “Vasculotide: Modified T7 peptide (CHHHRHSF, SEQ ID NO:2) conjugated to 10 kDa tetrameric polyethylene glycol-maleimide; Tie2 binding peptide mimetic”, the “time points at which activation of Tie2 (pY Tie2) was evident” value in data set [1] (2 μg I.P.) is given as 24-72 hours; in data set [1] (2 μg I.P., listed as Vasc-PEG), “at least 72 hours”. In data set [1] (2 μg I.P., post injection), the “time by which Tie2 receptor phosphorylation had returned to basal (PBS stimulated) levels” value worked out at 96 h. Further, the “Tie2 phosphorylation after gavage (oral availability)” value in data set [1] (2 μg P.O., two hours post gavage) is reported as “did not yield increased activation”. Besides, the “Tie2 receptor-activating activity at higher doses” value in data set [1] (I.P. doses above 500 ng up to 12.5 μg, 1 hour) is “reduced receptor-activating activity”. In addition, the “dose that activated Tie2 optimally (pY Tie2)” value in data set [1] (I.P., 1 hour in circulation, lung homogenates, doses 500 ng-12.5 μg) is on record as 500 ng/25-30 g mouse. In data set [2] (2 μg I.P., p=0.0149 PBS vs Vasc), the “time up to which significant levels of circulating Vasculotide are detected by ELISA” value is given as “up to 24 hours”. For the same substance, the “circulating level in plasma after oral delivery” value in data set [2] is recorded as “no significant levels”; in data set [2] (listed as Vasc-PEG), “did not result in any detectable levels”. The “circulating level in plasma at 24 hours post injection” value in data set [2] (I.P., unpaired student t-test vs PBS) is “statistically detectable level”.
